From patent US12060424 (AMUNIX PHARMACEUTICALS, dated 2024)

Assays:
[1] = biological target: T1, human EpCAM expressed on cells (CHO cells stably transfected with human EpCAM); EpCAM-positive human tumor … (human, UniProt P16422 24-314); experiment: cell-based or functional assay
T1 sequence (looked up): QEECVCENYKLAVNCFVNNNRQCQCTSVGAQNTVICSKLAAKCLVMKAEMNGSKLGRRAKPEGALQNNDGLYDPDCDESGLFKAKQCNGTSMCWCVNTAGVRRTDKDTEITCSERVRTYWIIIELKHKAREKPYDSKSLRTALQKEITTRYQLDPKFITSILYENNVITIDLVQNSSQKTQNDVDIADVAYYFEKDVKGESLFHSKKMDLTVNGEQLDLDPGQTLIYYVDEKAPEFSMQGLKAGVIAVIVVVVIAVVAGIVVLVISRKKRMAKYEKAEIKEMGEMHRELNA

[2] = biological target: recombinant human CD3 epsilon & delta (rhCD3ε & δ), Creative BioMart cat #CD3E&CD3D-219H (human) (UniProt P07766); experiment: sandwich ELISA: rhCD3ε & δ coated, biotinylated anti-XTEN antibody detection
recombinant human CD3 epsilon & delta (rhCD3ε & δ), Creative BioMart cat #CD3E&CD3D-219H (human), sequence (P07766 23-126, stated change not applied, chain 1 of 2): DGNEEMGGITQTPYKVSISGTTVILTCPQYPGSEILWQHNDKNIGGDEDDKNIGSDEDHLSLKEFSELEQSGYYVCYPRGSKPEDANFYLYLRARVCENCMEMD
recombinant human CD3 epsilon & delta (rhCD3ε & δ), Creative BioMart cat #CD3E&CD3D-219H (human), sequence (P04234 22-105, stated change not applied, chain 2 of 2, further chain): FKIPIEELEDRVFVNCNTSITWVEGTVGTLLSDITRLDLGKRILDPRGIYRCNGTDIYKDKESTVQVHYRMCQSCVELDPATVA

B1: AC1695 protease-untreated anti-EpCAM×anti-CD3 ProTIA (bispecific antibody)
chain: DIQMTQSPSSLSASVGDRVTITCRSTKSLLHSNGITYLYWYQQKPGKAPKLLIYQMSNLASGVPSRFSSSGSGTDFTLTISSLQPEDFATYYCAQNLEIPRTFGQGTKVEIKGATPPETGAETESPGETTGGSAESEPPGEGQVQLVQSGPGLVQPGGSVRISCAASGYTFTNYGMNWVKQAPGKGLEWMGWINTYTGESTYADSFKGRFTFSLDTSASAAYLQINSLRAEDTAVYYCARFAIKGDYWGQGTLLTVSSGGGGSDIQMTQSPSSLSASVGDRVTITCRASQDIRNYLNWYQQKPGKAPKLLIYYTSRLESGVPSRFSGSGSGTDYTLTISSLQPEDFATYYCQQGNTLPWTFGQGTKVEIKGATPPETGAETESPGETTGGSAESEPPGEGEVQLVESGGGLVQPGGSLRLSCAASGYSFTGYTMNWVRQAPGKGLEWVALINPYKGVSTYNQKFKDRFTISVDKSKNTAYLQMNSLRAEDTAVYYCARSGYYGDSDWYFDVWGQGTLVTVSSGTAEAASASGTTGRAGEAANLTPAGLTGPPGSPAGSPTSTEEGTSESATPESGPGTSTEPSEGSAPGSPAGSPTSTEEGTSTEPSEGSAPGTSTEPSEGSAPGTSESATPESGPGSEPATSGSETPGSEPATSGSETPGSPAGSPTSTEEGTSESATPESGPGTSTEPSEGSAPGTSTEPSEGSAPGSPAGSPTSTEEGTSTEPSEGSAPGTSTEPSEGSAPGTSESATPESGPGTSTEPSEGSAPGTSESATPESGPGSEPATSGSETPGTSTEPSEGSAPGTSTEPSEGSAPGTSESATPESGPGTSESATPESGPGSPAGSPTSTEEGTSESATPESGPGSEPATSGSETPGTSESATPESGPGTSTEPSEGSAPGTSTEPSEGSAPGTSTEPSEGSAPGTSTEPSEGSAPGTSTEPSEGSAPGTSTEPSEGSAPGSPAGSPTSTEEGTSTEPSEGSAPGTSESATPESGPGSEPATSGSETPGTSESATPESGPGSEPATSGSETPGTSESATPESGPGTSTEPSEGSAPGTSESATPESGPGSPAGSPTSTEEGSPAGSPTSTEEGSPAGSPTSTEEGTSESATPESGPGTSTEPSEGSAPGTSESATPESGPGSEPATSGSETPGTSESATPESGPGSEPATSGSETPGTSESATPESGPGTSTEPSEGSAPGSPAGSPTSTEEGTSESATPESGPGSEPATSGSETPGTSESATPESGPGSPAGSPTSTEEGSPAGSPTSTEEGTSTEPSEGSAPGTSESATPESGPGTSESATPESGPGTSESATPESGPGSEPATSGSETPGSEPATSGSETPGSPAGSPTSTEEGTSTEPSEGSAPGTSTEPSEGSAPGSEPATSGSETPGTSESATPESGPGTSTEPSEGSAPGHHHHHH
- EC50 (pM), caspase 3/7 cytotoxicity, PBMC with HCT-116 cells 10:1 [1]: 53 pM
- EC50 (pM), caspase 3/7 cytotoxicity, PBMC with HPAF-II cells 10:1 [1]: 18 pM
- EC50 (pM), caspase 3/7 cytotoxicity, PBMC with MDA-MB-231 cells 10:1 [1]: 3750 pM
- EC50 [2]: 0.028 µg/mL

B2: AC1714 protease-untreated anti-EpCAM×anti-CD3 ProTIA (bispecific antibody)
chain: DIQMTQSPSSLSASVGDRVTITCRSTKSLLHSNGITYLYWYQQKPGKAPKLLIYQMSNLASGVPSRFSSSGSGTDFTLTISSLQPEDFATYYCAQNLEIPRTFGQGTKVEIKGATPPETGAETESPGETTGGSAESEPPGEGQVQLVQSGPGLVQPGGSVRISCAASGYTFTNYGMNWVKQAPGKGLEWMGWINTYTGESTYADSFKGRFTFSLDTSASAAYLQINSLRAEDTAVYYCARFAIKGDYWGQGTLLTVSSGGGGSDIQMTQSPSSLSASVGDRVTITCRASQDIRNYLNWYQQKPGKAPKLLIYYTSRLESGVPSRFSGSGSGTDYTLTISSLQPEDFATYYCQQGNTLPWTFGQGTKVEIKGATPPETGAETESPGETTGGSAESEPPGEGEVQLVESGGGLVQPGGSLRLSCAASGYSFTGYTMNWVRQAPGKGLEWVALINPYKGVSTYNQKFKDRFTISVDKSKNTAYLQMNSLRAEDTAVYYCARSGYYGDSDWYFDVWGQGTLVTVSSGTAEAASASGEAGRSANHTPAGLTGPPGSPAGSPTSTEEGTSESATPESGPGTSTEPSEGSAPGSPAGSPTSTEEGTSTEPSEGSAPGTSTEPSEGSAPGTSESATPESGPGSEPATSGSETPGSEPATSGSETPGSPAGSPTSTEEGTSESATPESGPGTSTEPSEGSAPGTSTEPSEGSAPGSPAGSPTSTEEGTSTEPSEGSAPGTSTEPSEGSAPGTSESATPESGPGTSTEPSEGSAPGTSESATPESGPGSEPATSGSETPGTSTEPSEGSAPGTSTEPSEGSAPGTSESATPESGPGTSESATPESGPGSPAGSPTSTEEGTSESATPESGPGSEPATSGSETPGTSESATPESGPGTSTEPSEGSAPGTSTEPSEGSAPGTSTEPSEGSAPGTSTEPSEGSAPGTSTEPSEGSAPGTSTEPSEGSAPGSPAGSPTSTEEGTSTEPSEGSAPGTSESATPESGPGSEPATSGSETPGTSESATPESGPGSEPATSGSETPGTSESATPESGPGTSTEPSEGSAPGTSESATPESGPGSPAGSPTSTEEGSPAGSPTSTEEGSPAGSPTSTEEGTSESATPESGPGTSTEPSEGSAPGTSESATPESGPGSEPATSGSETPGTSESATPESGPGSEPATSGSETPGTSESATPESGPGTSTEPSEGSAPGSPAGSPTSTEEGTSESATPESGPGSEPATSGSETPGTSESATPESGPGSPAGSPTSTEEGSPAGSPTSTEEGTSTEPSEGSAPGTSESATPESGPGTSESATPESGPGTSESATPESGPGSEPATSGSETPGSEPATSGSETPGSPAGSPTSTEEGTSTEPSEGSAPGTSTEPSEGSAPGSEPATSGSETPGTSESATPESGPGTSTEPSEGSAPGHHHHHH
- EC50 (pM), caspase 3/7 cytotoxicity, PBMC with HCT-116 cells 10:1 [1]: 52 pM
- EC50 (pM), caspase 3/7 cytotoxicity, PBMC with HPAF-II cells 10:1 [1]: 20 pM
- EC50 (pM), caspase 3/7 cytotoxicity, PBMC with MDA-MB-231 cells 10:1 [1]: 1740 pM
- EC50 [2]: 0.03 µg/mL

B3: AC1715 protease-untreated anti-EpCAM×anti-CD3 ProTIA (bispecific antibody)
chain: DIQMTQSPSSLSASVGDRVTITCRSTKSLLHSNGITYLYWYQQKPGKAPKLLIYQMSNLASGVPSRFSSSGSGTDFTLTISSLQPEDFATYYCAQNLEIPRTFGQGTKVEIKGATPPETGAETESPGETTGGSAESEPPGEGQVQLVQSGPGLVQPGGSVRISCAASGYTFTNYGMNWVKQAPGKGLEWMGWINTYTGESTYADSFKGRFTFSLDTSASAAYLQINSLRAEDTAVYYCARFAIKGDYWGQGTLLTVSSGGGGSDIQMTQSPSSLSASVGDRVTITCRASQDIRNYLNWYQQKPGKAPKLLIYYTSRLESGVPSRFSGSGSGTDYTLTISSLQPEDFATYYCQQGNTLPWTFGQGTKVEIKGATPPETGAETESPGETTGGSAESEPPGEGEVQLVESGGGLVQPGGSLRLSCAASGYSFTGYTMNWVRQAPGKGLEWVALINPYKGVSTYNQKFKDRFTISVDKSKNTAYLQMNSLRAEDTAVYYCARSGYYGDSDWYFDVWGQGTLVTVSSGTAEAASASGESGRAANTTPAGLTGPPGSPAGSPTSTEEGTSESATPESGPGTSTEPSEGSAPGSPAGSPTSTEEGTSTEPSEGSAPGTSTEPSEGSAPGTSESATPESGPGSEPATSGSETPGSEPATSGSETPGSPAGSPTSTEEGTSESATPESGPGTSTEPSEGSAPGTSTEPSEGSAPGSPAGSPTSTEEGTSTEPSEGSAPGTSTEPSEGSAPGTSESATPESGPGTSTEPSEGSAPGTSESATPESGPGSEPATSGSETPGTSTEPSEGSAPGTSTEPSEGSAPGTSESATPESGPGTSESATPESGPGSPAGSPTSTEEGTSESATPESGPGSEPATSGSETPGTSESATPESGPGTSTEPSEGSAPGTSTEPSEGSAPGTSTEPSEGSAPGTSTEPSEGSAPGTSTEPSEGSAPGTSTEPSEGSAPGSPAGSPTSTEEGTSTEPSEGSAPGTSESATPESGPGSEPATSGSETPGTSESATPESGPGSEPATSGSETPGTSESATPESGPGTSTEPSEGSAPGTSESATPESGPGSPAGSPTSTEEGSPAGSPTSTEEGSPAGSPTSTEEGTSESATPESGPGTSTEPSEGSAPGTSESATPESGPGSEPATSGSETPGTSESATPESGPGSEPATSGSETPGTSESATPESGPGTSTEPSEGSAPGSPAGSPTSTEEGTSESATPESGPGSEPATSGSETPGTSESATPESGPGSPAGSPTSTEEGSPAGSPTSTEEGTSTEPSEGSAPGTSESATPESGPGTSESATPESGPGTSESATPESGPGSEPATSGSETPGSEPATSGSETPGSPAGSPTSTEEGTSTEPSEGSAPGTSTEPSEGSAPGSEPATSGSETPGTSESATPESGPGTSTEPSEGSAPGHHHHHH
- EC50 (pM), caspase 3/7 cytotoxicity, PBMC with HCT-116 cells 10:1 [1]: 20 pM
- EC50 (pM), caspase 3/7 cytotoxicity, PBMC with HPAF-II cells 10:1 [1]: 14 pM
- EC50 (pM), caspase 3/7 cytotoxicity, PBMC with MDA-MB-231 cells 10:1 [1]: 1190 pM
- EC50 [2]: 0.034 µg/mL

B4: AC1693 protease-untreated anti-EpCAM×anti-CD3 ProTIA (bispecific antibody)
chain: DIQMTQSPSSLSASVGDRVTITCRSTKSLLHSNGITYLYWYQQKPGKAPKLLIYQMSNLASGVPSRFSSSGSGTDFTLTISSLQPEDFATYYCAQNLEIPRTFGQGTKVEIKGATPPETGAETESPGETTGGSAESEPPGEGQVQLVQSGPGLVQPGGSVRISCAASGYTFTNYGMNWVKQAPGKGLEWMGWINTYTGESTYADSFKGRFTFSLDTSASAAYLQINSLRAEDTAVYYCARFAIKGDYWGQGTLLTVSSGGGGSDIQMTQSPSSLSASVGDRVTITCRASQDIRNYLNWYQQKPGKAPKLLIYYTSRLESGVPSRFSGSGSGTDYTLTISSLQPEDFATYYCQQGNTLPWTFGQGTKVEIKGATPPETGAETESPGETTGGSAESEPPGEGEVQLVESGGGLVQPGGSLRLSCAASGYSFTGYTMNWVRQAPGKGLEWVALINPYKGVSTYNQKFKDRFTISVDKSKNTAYLQMNSLRAEDTAVYYCARSGYYGDSDWYFDVWGQGTLVTVSSGTAEAASASGESGRAANHTGAPPGGLTGPPGSPAGSPTSTEEGTSESATPESGPGTSTEPSEGSAPGSPAGSPTSTEEGTSTEPSEGSAPGTSTEPSEGSAPGTSESATPESGPGSEPATSGSETPGSEPATSGSETPGSPAGSPTSTEEGTSESATPESGPGTSTEPSEGSAPGTSTEPSEGSAPGSPAGSPTSTEEGTSTEPSEGSAPGTSTEPSEGSAPGTSESATPESGPGTSTEPSEGSAPGTSESATPESGPGSEPATSGSETPGTSTEPSEGSAPGTSTEPSEGSAPGTSESATPESGPGTSESATPESGPGSPAGSPTSTEEGTSESATPESGPGSEPATSGSETPGTSESATPESGPGTSTEPSEGSAPGTSTEPSEGSAPGTSTEPSEGSAPGTSTEPSEGSAPGTSTEPSEGSAPGTSTEPSEGSAPGSPAGSPTSTEEGTSTEPSEGSAPGTSESATPESGPGSEPATSGSETPGTSESATPESGPGSEPATSGSETPGTSESATPESGPGTSTEPSEGSAPGTSESATPESGPGSPAGSPTSTEEGSPAGSPTSTEEGSPAGSPTSTEEGTSESATPESGPGTSTEPSEGSAPGTSESATPESGPGSEPATSGSETPGTSESATPESGPGSEPATSGSETPGTSESATPESGPGTSTEPSEGSAPGSPAGSPTSTEEGTSESATPESGPGSEPATSGSETPGTSESATPESGPGSPAGSPTSTEEGSPAGSPTSTEEGTSTEPSEGSAPGTSESATPESGPGTSESATPESGPGTSESATPESGPGSEPATSGSETPGSEPATSGSETPGSPAGSPTSTEEGTSTEPSEGSAPGTSTEPSEGSAPGSEPATSGSETPGTSESATPESGPGTSTEPSEGSAPGHHHHHH
- EC50 (pM), caspase 3/7 cytotoxicity, PBMC with HCT-116 cells 10:1 [1]: 21 pM
- EC50 (pM), caspase 3/7 cytotoxicity, PBMC with HPAF-II cells 10:1 [1]: 12 pM
- EC50 (pM), caspase 3/7 cytotoxicity, PBMC with MDA-MB-231 cells 10:1 [1]: 3480 pM
- EC50 [2]: 0.009 µg/mL
- fold more active binding than the non-cleavable AC1484 [2]: 3 fold
